From PMC9364107 (The Journal of Biological Chemistry, 2022)

B1: U2AF2 UHM E394K (domain or fragment)
chain: TEVLCLMNMVLPEELLDDEKYEEIVEDVRDECSKYGLVKSIEIPRPVDGVEVPGCGKIFVEFTSVFDCQKAMQGLTGRKFANRVVVTKYCDPDSYHRRDFW
B2: U2AF2 UHM K453A (domain or fragment)
chain: TEVLCLMNMVLPEELLDDEEYEEIVEDVRDECSKYGLVKSIEIPRPVDGVEVPGCGKIFVEFTSVFDCQKAMQGLTGRAFANRVVVTKYCDPDSYHRRDFW
B3: U2AF2 UHM E397K (domain or fragment)
chain: TEVLCLMNMVLPEELLDDEEYEKIVEDVRDECSKYGLVKSIEIPRPVDGVEVPGCGKIFVEFTSVFDCQKAMQGLTGRKFANRVVVTKYCDPDSYHRRDFW

Biological target: T1, SF3B1 ULM5 peptide (residues 333–351), wildtype (human, UniProt O75533-1 333-351)
T1 peptide: KRKSRWDETPASQMGGSTP
Test: ITC

| Binder | fold reduction in binding affinity against wildtype U2AF2 UHM |
| --- | --- |
| B1 | ~20 fold |
| B2 | 4 fold |
| B3 | ~100 fold |
